Assay [1] addresses recombinant human EGFRvIII protein, denatured (human) (UniProt P00533). In words: ELISA on coated denatured recombinant antigen; Exp 2, mAb 1 µg/ml.
Assay [2] deals with recombinant human wild-type EGFR protein, native (human) (UniProt P00533). In words: ELISA on coated native recombinant antigen; Exp 1. In general terms: In an ELISA, binding on a coated surface is turned into a signal by an enzyme label.
The target of assay [3] is recombinant human EGFRvIII protein, native (human) (UniProt P00533). In words: ELISA on coated native recombinant antigen; Exp 1.
Assay [4] concerns the target recombinant human wild-type EGFR protein, denatured (human) (UniProt P00533). In words: ELISA on coated denatured recombinant antigen; Exp 1.
Assay [5] deals with recombinant human EGFRvIII protein, denatured (human) (UniProt P00533). Described as above.
In assay [6] the target is recombinant human wild-type EGFR protein, native (human) (UniProt P00533). In words: ELISA on coated native recombinant antigen; Exp 2, mAb 1 µg/ml.
Assay [7] addresses recombinant human EGFRvIII protein, native (human) (UniProt P00533). The assay is described as above.
In assay [8] the target is recombinant human wild-type EGFR protein, denatured (human) (UniProt P00533). In words: ELISA on coated denatured recombinant antigen; Exp 2, mAb 1 µg/ml.

As for 225 monoclonal antibody (ATCC HB-8508), the ELISA absorbance (405 nm) is 0.004 A405 in assay [1]; 1.2 A405 in assay [2]; 1.08 A405 in assay [3]; -0.01 A405 in assay [4]; 0.001 A405 in assay [5]; 1.32 A405 in assay [6]. For the same substance, the ELISA absorbance (405 nm) in assay [7] was 1.5 A405.
In the case of Neg ctrl mouse mAb (antibody), the figures for the ELISA absorbance (405 nm) in assay [8] and in assay [7] were 0 A405 and -0.001 A405, respectively.

These data come from patent US20220323495A1.
